Consider 38 molecules from publication PMC12416549 (2024).

Where a chain is given by its changes, count along the chain named. Numbers in names are those of the source.

The experiment has as its target T1, TNFR1 (Homo sapiens, UniProt P19438).
T1 chain: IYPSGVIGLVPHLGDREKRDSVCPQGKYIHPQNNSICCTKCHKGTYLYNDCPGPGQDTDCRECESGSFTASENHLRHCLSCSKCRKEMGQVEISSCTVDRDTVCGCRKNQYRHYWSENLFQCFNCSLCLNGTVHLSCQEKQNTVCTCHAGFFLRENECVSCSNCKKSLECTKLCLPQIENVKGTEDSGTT
The experiment can be described thus: yeast display SC50.

B1: D56W (designed binder)
chain: MTLQELLREEALRRAEAEAFRYALELLAEKFPEQKEYLLDLAEEIESQIRSLSGVWVEDVRKFLDKEWAWVKELLAEHPAELAEVEAARAARLAELRAEVEAKVAA
For B1, the “apparent Kd (screen)” value turned out to be 1.69 nM.

B2: R61G (designed binder)
chain: B1 chain with W56D, R61G
As for B2, the “apparent Kd (screen)” value came out at 2.25 nM.

B3: E99K (designed binder)
chain: B1 chain with W56D, E99K
Turning to B3, the “apparent Kd (screen)” value is 0.539 nM.

B4: E25V (designed binder)
chain: B1 chain with E25V, W56D
As for B4, the “apparent Kd (screen)” value was found to be 0.593 nM.

B5: E43I (designed binder)
chain: B1 chain with E43I, W56D
B5: the “apparent Kd (screen)” value was determined as 0.539 nM.

B6: R89K (designed binder)
chain: B1 chain with W56D, R89K
As for B6, the “apparent Kd (screen)” value amounted to 0.539 nM.

B7: S51M (designed binder)
chain: B1 chain with S51M, W56D
In the case of B7, the “apparent Kd (screen)” value came to 0.718 nM.

B8: S47I (designed binder)
chain: B1 chain with S47I, W56D
With B8, the “apparent Kd (screen)” value amounted to 0.956 nM.

B9: L93T (designed binder)
chain: B1 chain with W56D, L93T
Turning to B9, the “apparent Kd (screen)” value is 0.653 nM.

B10: L24Q (designed binder)
chain: B1 chain with L24Q, W56D
As for B10, the “apparent Kd (screen)” value was determined as 0.79 nM.

B11: Q48Y (designed binder)
chain: B1 chain with Q48Y, W56D
Consider B11, for which the “apparent Kd (screen)” value was 11.4 nM.

B12: A17R (designed binder)
chain: B1 chain with A17R, W56D
On to B12, for which the “apparent Kd (screen)” value is 0.539 nM.

B13: L6Y (designed binder)
chain: B1 chain with L6Y, W56D
On to B13, for which the “apparent Kd (screen)” value stood at 5.31 nM.

B14: L38W (designed binder)
chain: B1 chain with L38W, W56D
For the molecule B14, the “apparent Kd (screen)” value stood at 0.49 nM.

B15: E81Q (designed binder)
chain: B1 chain with W56D, E81Q
B15: the “apparent Kd (screen)” value was 0.49 nM.

B16: K62Q (designed binder)
chain: B1 chain with W56D, K62Q
Turning to B16, the “apparent Kd (screen)” value was 0.539 nM.

B17: R97A (designed binder)
chain: B1 chain with W56D, R97A
In the case of B17, the “apparent Kd (screen)” value was 0.718 nM.

B18: P79Y (designed binder)
chain: B1 chain with W56D, P79Y
Consider B18, for which the “apparent Kd (screen)” value stood at 0.869 nM.

B19: L3P (designed binder)
chain: B1 chain with L3P, W56D
Consider B19, for which the “apparent Kd (screen)” value is 2.73 nM.

B20: A11F (designed binder)
chain: B1 chain with A11F, W56D
Consider B20, for which the “apparent Kd (screen)” value amounted to 0.718 nM.

B21: L93H (designed binder)
chain: B1 chain with W56D, L93H
For the molecule B21, the “apparent Kd (screen)” value came out at 0.446 nM.

B22: S51L (designed binder)
chain: B1 chain with S51L, W56D
As to B22, the “apparent Kd (screen)” value is 0.653 nM.

B23: E16N (designed binder)
chain: B1 chain with E16N, W56D
B23: the “apparent Kd (screen)” value worked out at 0.446 nM.

B24: D40P (designed binder)
chain: B1 chain with D40P, W56D
On to B24, for which the “apparent Kd (screen)” value is 9.41 nM.

B25: V60N (designed binder)
chain: B1 chain with W56D, V60N
As to B25, the “apparent Kd (screen)” value came to 0.956 nM.

B26: A23M (designed binder)
chain: B1 chain with A23M, W56D
On to B26, for which the “apparent Kd (screen)” value amounted to 0.539 nM.

B27: T2N (designed binder)
chain: B1 chain with T2N, W56D
B27: the “apparent Kd (screen)” value is 0.956 nM.

B28: F20C (designed binder)
chain: B1 chain with F20C, W56D
For the molecule B28, the “apparent Kd (screen)” value is 1.69 nM.

B29: K62V (designed binder)
chain: B1 chain with W56D, K62V
On to B29, for which the “apparent Kd (screen)” value was determined as 0.49 nM.

B30: R14S (designed binder)
chain: B1 chain with R14S, W56D
Take B30: the “apparent Kd (screen)” value was 0.49 nM.

B31: Y37R (designed binder)
chain: B1 chain with Y37R, W56D
For B31, the “apparent Kd (screen)” value amounted to 4.83 nM.

B32: D56C (designed binder)
chain: B1 chain with W56C
Turning to B32, the “apparent Kd (screen)” value came to 0.956 nM.

B33: E10I (designed binder)
chain: B1 chain with E10I, W56D
As for B33, the “apparent Kd (screen)” value was determined as 1.16 nM.

B34: R61Y (designed binder)
chain: B1 chain with W56D, R61Y
Turning to B34, the “apparent Kd (screen)” value was found to be 10.4 nM.

B35: V71Q (designed binder)
chain: B1 chain with W56D, V71Q
In the case of B35, the “apparent Kd (screen)” value stood at 0.869 nM.

B36: A19M (designed binder)
chain: B1 chain with A19M, W56D
Consider B36, for which the “apparent Kd (screen)” value was determined as 0.539 nM.

B37: E25N (designed binder)
chain: B1 chain with E25N, W56D
In the case of B37, the “apparent Kd (screen)” value stood at 0.869 nM.

B38: K62Y (designed binder)
chain: B1 chain with W56D, K62Y
For B38, the “apparent Kd (screen)” value was 0.446 nM.
